Assay results published in publication PMC5435087.

Experiments:
Assay in all cases: BLI
[1] = system: ancAnimal dsrm (reconstructed ancestor (animal)); settings: Label-free kinetics assay (ForteBio, biotinylated RNA on streptavidin probes, biocytin block), 1x Kinetics Buffer, pH 7; temperature and salt not stated …
[2] = system: ancPlant dsrm2 H31L (reconstructed ancestor (plant)); settings: Label-free kinetics assay (ForteBio, biotinylated RNA on streptavidin probes, biocytin block), 1x Kinetics Buffer, pH 7; temperature and salt not stated …; scale: fold change in Kd
[3] = system: ancAnimal dsrm3 (reconstructed ancestor (animal)); settings: steady state; initial-rate Km 4.1 uM; Label-free kinetics assay (ForteBio, biotinylated RNA on streptavidin probes, biocytin block), 1x Kinetics Buffer, pH 7; temperature and salt not stated …
[4] = system: ancPlant dsrm (reconstructed ancestor (plant)); settings: Label-free kinetics assay (ForteBio, biotinylated RNA on streptavidin probes, biocytin block), 1x Kinetics Buffer, pH 7; temperature and salt not stated …
[5] = system: Rosid dsrm1 (reconstructed ancestor (Rosids)); settings: Label-free kinetics assay (ForteBio, biotinylated RNA on streptavidin probes, biocytin block), 1x Kinetics Buffer, pH 7; temperature and salt not stated …
[6] = system: Boreoeutherian TARBP2 dsrm1 (reconstructed ancestor (Boreoeutheria)); settings: Label-free kinetics assay (ForteBio, biotinylated RNA on streptavidin probes, biocytin block), 1x Kinetics Buffer, pH 7; temperature and salt not stated …; scale: fold lower affinity than ancestral TARBP2 dsrm1
[7] = system: ancPlant dsrm2 (reconstructed ancestor (plant)); settings: steady state; initial-rate Km 4.2 uM; Label-free kinetics assay (ForteBio, biotinylated RNA on streptavidin probes, biocytin block), 1x Kinetics Buffer, pH 7; temperature and salt not stated …
[8] = system: ancestral dsrm1 before Rosid shift (reconstructed ancestor (plant)); settings: Label-free kinetics assay (ForteBio, biotinylated RNA on streptavidin probes, biocytin block), 1x Kinetics Buffer, pH 7; temperature and salt not stated …
[9] = system: ancAnimal dsrm1 (reconstructed ancestor (animal)); settings: steady state; initial-rate Km 4.2 uM; Label-free kinetics assay (ForteBio, biotinylated RNA on streptavidin probes, biocytin block), 1x Kinetics Buffer, pH 7; temperature and salt not stated …
[10] = system: ancPlant DRB4 dsrm1 (reconstructed ancestor (plant)); settings: steady state; initial-rate Km 38.3 uM; Label-free kinetics assay (ForteBio, biotinylated RNA on streptavidin probes, biocytin block), 1x Kinetics Buffer, pH 7; temperature and salt not stated …
[11] = system: ancestral TARBP2 dsrm1 + QV insertion (reconstructed ancestor (mammal)); settings: Label-free kinetics assay (ForteBio, biotinylated RNA on streptavidin probes, biocytin block), 1x Kinetics Buffer, pH 7; temperature and salt not stated …; scale: fold lower affinity than ancestral TARBP2 dsrm1
[12] = system: ancestral plant DRB4 dsrm1 (before Fabaceae shift) (reconstructed ancestor (plant)); settings: Label-free kinetics assay (ForteBio, biotinylated RNA on streptavidin probes, biocytin block), 1x Kinetics Buffer, pH 7; temperature and salt not stated …
[13] = system: ancAnimal dsrm + dsrm1 substitutions (reconstructed ancestor (animal)); settings: Label-free kinetics assay (ForteBio, biotinylated RNA on streptavidin probes, biocytin block), 1x Kinetics Buffer, pH 7; temperature and salt not stated …
[14] = system: ancPlant DRB6 dsrm2 (reconstructed ancestor (plant)); settings: steady state; initial-rate Km 24.8 uM; Label-free kinetics assay (ForteBio, biotinylated RNA on streptavidin probes, biocytin block), 1x Kinetics Buffer, pH 7; temperature and salt not stated …
[15] = system: ancPlant dsrm + dsrm2 alpha2 (reconstructed ancestor (plant)); settings: Label-free kinetics assay (ForteBio, biotinylated RNA on streptavidin probes, biocytin block), 1x Kinetics Buffer, pH 7; temperature and salt not stated …
[16] = system: ancAnimal dsrm + dsrm3 substitutions (reconstructed ancestor (animal)); settings: Label-free kinetics assay (ForteBio, biotinylated RNA on streptavidin probes, biocytin block), 1x Kinetics Buffer, pH 7; temperature and salt not stated …
[17] = system: ancestral plant DRB4 dsrm1 + H31 (reconstructed ancestor (plant)); settings: Label-free kinetics assay (ForteBio, biotinylated RNA on streptavidin probes, biocytin block), 1x Kinetics Buffer, pH 7; temperature and salt not stated …; scale: fold higher affinity than ancestral plant DRB4 dsrm1
[18] = system: Eutherian PRKRA dsrm2 (reconstructed ancestor (Eutheria)); settings: Label-free kinetics assay (ForteBio, biotinylated RNA on streptavidin probes, biocytin block), 1x Kinetics Buffer, pH 7; temperature and salt not stated …; scale: fold higher affinity than ancestral mammal PRKRA dsrm2
[19] = system: ancAnimal dsrm2 (reconstructed ancestor (animal)); settings: steady state; initial-rate Km 22.9 uM; Label-free kinetics assay (ForteBio, biotinylated RNA on streptavidin probes, biocytin block), 1x Kinetics Buffer, pH 7; temperature and salt not stated …

**Q.** Which results are given for short dsRNA?
**A.** Kd [1]: 17.2 µM; binding signal [2]: 6.6; Kd [3]: 3.2 µM; Kd [4]: 59.2 µM; Kd [5]: 4.89 pKd; binding signal [6]: 10; Kd [7]: 5.2 µM; Kd [8]: 4.41 pKd; Kd [9]: 4 µM; Kd [10]: 38.9 µM; binding signal [11]: 10; Kd [12]: 4.31 pKd; binding signal (fold higher affinity than ancAnimal dsrm) [13]: 3; Kd [14]: 24.4 µM; binding signal (fold higher affinity than ancPlant dsrm) [15]: 9.1; binding signal (fold higher affinity than ancAnimal dsrm) [16]: 4.3; binding signal [17]: 8.1; binding signal [18]: 3.79; Kd [19]: 24.6 µM
